A word on the Kd: it is the free concentration of one partner at which half of the binding sites on the other are occupied at equilibrium, for simple one-to-one binding. In general, koff refers to the rate constant with which the complex falls apart. As usually defined, the kon is the rate constant with which the complex forms. What is called EC50 is the concentration needed to bring the measured effect to its halfway point.

For test [1], the target named is T1, Recombinant human B7-H3 (human, UniProt Q5ZPR3 29-466, limits assumed).
T1 construct: also called CD276; B7RP-2
T1 sequence: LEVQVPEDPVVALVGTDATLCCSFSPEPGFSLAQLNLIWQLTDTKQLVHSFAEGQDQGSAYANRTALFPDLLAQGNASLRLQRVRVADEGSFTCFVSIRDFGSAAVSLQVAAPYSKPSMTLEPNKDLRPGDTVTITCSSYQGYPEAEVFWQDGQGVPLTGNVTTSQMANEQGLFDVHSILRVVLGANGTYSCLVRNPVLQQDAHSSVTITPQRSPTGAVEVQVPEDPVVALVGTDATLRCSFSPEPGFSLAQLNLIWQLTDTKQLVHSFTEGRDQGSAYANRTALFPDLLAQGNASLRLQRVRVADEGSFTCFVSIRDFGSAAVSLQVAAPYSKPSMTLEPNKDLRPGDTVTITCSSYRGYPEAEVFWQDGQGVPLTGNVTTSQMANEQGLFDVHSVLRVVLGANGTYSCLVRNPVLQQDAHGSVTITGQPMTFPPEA
As to the kind of experiment: SPR (such as Biacore T200), against human B7-H3. The method, then: (§1) The recombinantly expressed antibodies were used to assess binding activity to B7-H3 by conventional ELISA according to the known art. Recombinant human B7-H3 and cyno B7-H3 were coated onto ELISA plates to detect binding at serially diluted concentrations of the anti-B7-H3 antibody preparations. The binding affinity of select anti-B7-H3 antibodies were measured on a surface plasmon resonance (SPR) instrument, such as a Biacore T200™, against human B7-H3 (table 3) and cyno B7-H3 (table 4). Cell lines expressing B7-H3, A498 and SK-MES-1, were used to assess binding by anti-B7-H3 antibodies on the native protein on the cell surface by flow cytometry according to the known art. […] In addition, the antibody-dependent cellular cytotoxicity (ADCC) activity of select anti-B7-H3 antibodies were assessed using an engineered surrogate effector cell line, kit reagents, and a luminometer (Promega, Madison, Wis.) on A498 and SK-MES-1 as target cells in table 2 under the heading “ADCC (reporter) and FIGS. 1C and 1D. Finally, specificity of each of the antibodies examined thus far were assessed by interacting with proteins from the B7 family (human B7-1, B7-2, PD-L2, PD-L1, B7-H2, B7-H4, B7-H5, B7-H6, B7-H7) against B7-H3 using ELISA. The data were plotted for each antibody on FIGS. 3A through 3E.
In general terms: Surface plasmon resonance follows binding to a sensor surface in real time, without labels.

Test [2] concerns the target Recombinant cyno B7-H3 (cyno). Put plainly: SPR (such as Biacore T200), against cyno B7-H3. How it is done: as §1
Test [3] addresses T2, B7-H3, native protein on the cell surface of A498 and SK-MES-1 cells (UniProt Q5ZPR3 29-534, limits assumed).
T2 construct: whole, on cells; The cell line is named under assay for each row
T2 sequence (looked up): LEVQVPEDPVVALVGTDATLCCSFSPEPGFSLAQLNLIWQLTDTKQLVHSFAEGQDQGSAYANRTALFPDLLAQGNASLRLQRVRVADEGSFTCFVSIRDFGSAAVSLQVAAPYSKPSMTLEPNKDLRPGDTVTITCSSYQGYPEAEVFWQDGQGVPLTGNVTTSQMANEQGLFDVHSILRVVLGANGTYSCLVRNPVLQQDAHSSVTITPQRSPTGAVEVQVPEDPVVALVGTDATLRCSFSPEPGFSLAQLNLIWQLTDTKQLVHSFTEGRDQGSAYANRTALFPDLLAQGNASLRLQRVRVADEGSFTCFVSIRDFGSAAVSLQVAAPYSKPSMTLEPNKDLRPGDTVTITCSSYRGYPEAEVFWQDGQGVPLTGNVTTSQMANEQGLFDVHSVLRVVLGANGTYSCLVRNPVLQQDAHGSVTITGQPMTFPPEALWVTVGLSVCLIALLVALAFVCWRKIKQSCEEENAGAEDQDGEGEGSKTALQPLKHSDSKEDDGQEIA
Put plainly: flow cytometry (FACS) on SK-MES-1 cells. How it is done:
as §1
In general terms: In flow cytometry, cells or beads pass a laser one at a time.

For test [4], the target named is T2, B7-H3, native protein on the cell …. Put plainly: cell-based or functional assay.
Test [5] has as its target T1, Recombinant human B7-H3. Put plainly: ELISA, recombinant human B7-H3 coated on plate. The method, then:
as §1
Background: In an ELISA, binding on a coated surface is turned into a signal by an enzyme label.

Test [6] has as its target T2, B7-H3, native protein on the cell …. Put plainly: flow cytometry (FACS) on A498 cells. The method, then: as §1
The target of test [7] is Recombinant cyno B7-H3 (cyno). Put plainly: ELISA, cyno B7-H3 coated on plate. How it is done:
as §1

B1: SCT-Da148 (antibody, V domains shown)
VH: EVQLQQSGAELVKPGASVKLSCTASGVNIKDTYIHWVKQRPEQGLEWIGRIDPANGNRKYDPKFQGKATITADSSSNTAYLQLSSLTSEDTAVYYCARDGYYAPGYWGQGTTLTVSS
VL: DIVMTQSQKFMSTSVGDRVSVTCKASQNVGTDVAWYQQKPGQSPKLLIYSASYRFSGVPDRFTGSGSGTDFSLAISNVQSEDLAEYFCQQYNSYPYTFGGGAKLEIK
For the molecule B1, the Kd in test [1] is 6.41 nM; in test [2] it was 0.503 nM. Besides, the off-rate (koff) worked out at 0.00234 s⁻¹ in test [1] and 0.000368 s⁻¹ in test [2]. The kon stood at 366000 M⁻¹ s⁻¹ in test [1] and 731000 M⁻¹ s⁻¹ in test [2]. Moreover, the EC50 in test [3] came out at 1.49 nM; in test [5], 0.0076 nM; in test [6] it was 1.6 nM; in test [7], 0.0114 nM. For the same molecule, in test [4], the “ADCC (reporter) EC50, A498 target cells” value was 3.6 nM. The “ADCC (reporter) EC50, SK-MES-1 target cells” value (“ADCC … SK-MES-1 target cells” for short) in test [4] is 4.2 nM.

B2: SCT-Da192 (antibody, V domains shown)
VH: EVQLQQSGPELVKPGASVKISCKTSGYTFTEYTMHWVKQSHGKSLEWIGVINPNNGGTTYNQKFKGKATLTVDKSSSTAYMELRSLTSEDSAVYYCARPHSLLRLRREFDYWGQGTTLTVSS
VL: QIVLTQSPALMSASPGEKVTMTCSASSSVSYMYWYQQKPRSSPKPWIYLTSNLASGVPARFSGSGSGTSYSLTISSMEAEDAATYYCQQWSSNPLTFGAGTKLELK
As for B2, the Kd stood at 23.8 nM in test [1] and 1.64 nM in test [2]. Besides, the koff stood at 0.00203 s⁻¹ in test [1] and 0.000505 s⁻¹ in test [2]. The values for the kon in test [1] and in test [2] were 85100 M⁻¹ s⁻¹ and 307000 M⁻¹ s⁻¹, respectively. The EC50 was 2.32 nM in test [3], 0.0109 nM in test [5], 2.62 nM in test [6] and 0.0176 nM in test [7]. The “ADCC (reporter) EC50, A498 target cells” value in test [4] came to 1.1 nM. For the same molecule, the “ADCC … SK-MES-1 target cells” value in test [4] stood at 0.9 nM.

B3: SCT-Da333 (antibody, V domains shown)
VH: QVQLQQSGPELVRPGVSVKISCKGSGYTFTDYAVHWVKQSHAKSLEWIGVINTYSGNTYYNLHFKGKATMTVDKSSSTAYMELARLTSEDSAIYYCARRRGSHRDAYFDYWGQGTTLTVSS
VL: DIVMTQSHKFMSTSVGDRVSITCRASQDVSTAVAWYQQKPGQSPKLLIYSASYRYTGVPDRFTVSGSGTDFTFTISSVQAEDLAVYYCQQHYSTPWTFGGGTKLEIK
For B3, in test [1], the Kd worked out at 380 nM. Further, the koff in test [1] worked out at 0.0512 s⁻¹. Besides, the kon in test [1] is 135000 M⁻¹ s⁻¹. Besides, the EC50 is 1.94 nM in test [3], 0.00833 nM in test [5], 3.29 nM in test [6] and 3.05 nM in test [7]. The “ADCC (reporter) EC50, A498 target cells” value in test [4] amounted to 23.3 nM. The “ADCC … SK-MES-1 target cells” value in test [4] was 32.8 nM.

B4: SCT-Da250 (antibody, V domains shown)
VH: QGQMQQSGAELVKPGASVRLSCKTSGFTFSSFYISWLKQKPGQSLEWIAWIYAGPGYTSYNQKFTGKAQLTVDTSSSTAYMQFSSLTTEDSAIYYCARHVGRQRGYFDVWGAGTTVTVSS
VL: DIVMTQSHKFMSTSVGDRVSITCKASQDVSTAVAWYQQKPGQSPKLLIYSASYRYTGVPDHFTVSGSGTDFTFTISSVQAEDLAVYYCQQHYSTPWTFGGGTKLEIK
Take B4: the figures for the Kd in test [1] and in test [2] were 2.75 nM and 0.398 nM, respectively. Further, the dissociation rate constant (koff) was determined as 0.0011 s⁻¹ in test [1] and 0.000361 s⁻¹ in test [2]. The kon in test [1] was 402000 M⁻¹ s⁻¹; in test [2] it was 905000 M⁻¹ s⁻¹. Moreover, the EC50 in test [3] amounted to 1.46 nM; in test [5] it was 0.0226 nM; in test [6], 1.43 nM; in test [7] it was 0.0237 nM. Further, the “ADCC (reporter) EC50, A498 target cells” value in test [4] is 2.4 nM. Further, the “ADCC … SK-MES-1 target cells” value in test [4] was 2.4 nM.

B5: SCT-Da182 (antibody, V domains shown)
VH: EVQLQQSGPELVKPGASMKISCKVSGFSFTGYTMNWVKQSHGKNLEWIGLINTYNGGTFYNQKFKAKATLTVDKSSSTAHMELLSLTSEDSAVYYCARSPGRYSMDYWGQGTSVTVSS
VL: DIVLTQSPASLAVSLGQRATISCKASQSVDYNGYSYLNWYQQKPGQPPKLLIYPASNLESGIPARFSGSGSGTDFTLNIHPVEEEDAATYYCQQSKEDPYTFGGGTKLEIK
Consider B5, for which the equilibrium dissociation constant (Kd) amounted to 10.9 nM in test [1] and 1.22 nM in test [2]. The values for the koff in test [1] and in test [2] were 0.00101 s⁻¹ and 0.000283 s⁻¹, respectively. Further, the association rate constant (kon) in test [1] is 92700 M⁻¹ s⁻¹; in test [2], 232000 M⁻¹ s⁻¹. The concentration for a half-maximal effect (EC50) in test [3] came out at 4.09 nM; in test [5], 0.0105 nM; in test [6], 3.7 nM; in test [7], 0.00882 nM. The “ADCC (reporter) EC50, A498 target cells” value in test [4] is 4.5 nM. For the same molecule, the “ADCC … SK-MES-1 target cells” value in test [4] was 4.6 nM.

(Values after patent publication US20220235134A1 (SINGLE CELL TECHNOLOGY, published 2022).)
